# B1: synthetic rVλ6Wil fibrils (other)
# VL: NFLLTQPHSVSESPGKTVTISCTRSSGSIANNYVHWYQQRPGSSPTTVIFEDDHRPSGVPDRFSGSVDTSSNSASLTISGLKTEDEADYYCQSYDHNNQVFGGGTKLTVLG
# notes: Amyloid fibril polymer of rVλ6Wil monomers; Used in suspension (pulldown), coupled to a CM-5 chip (SPR) or dried onto microplate wells; also called rVλ6Wil synthetic amyloid fibrils; rVλ6Wil fibril seed
# Biological target: T1, streptavidin/gold (10 nm-diameter; Electron Microscopy Sciences) (UniProt P22629 37-163, limits assumed, conjugated to 10 nm gold particles)
# T1 construct: Detection reagent; also called avidin-conjugated gold particles; gold particles
# Test: immunogold electron microscopy control, fibrils with recruited AL1κ and no mAb added
# From the text: Immunogold electron microscopy was used to investigate the binding sites of AL1κ LC on rVλ6Wil fibrils (FIG. 6A and FIG. 6B). The distribution of AL1κ LC (evidenced by the presence of anti-κ LC mAb-bound 10 nm-diameter gold particles; arrows) was generally at the ends of the rVλ6Wil fibrils and less commonly seen along the length of the fibril (arrowheads; FIG. 6A). A sample of fibrils with AL1κ LC recruited but with no mAb added served as a non-specific binding control. No gold particles were observed associated with the majority of fibrils in this preparation (FIG. 6B).
# Twenty-five μg of rVλ6Wil fibrils were mixed with 1 μg […] in 200 μL of tris-buffered saline (TBS) with 0.05% tween-20 (TBST) in a 1.5 mL-volume microcentrifuge tube. The sample was rotated at RT for 24 h before being centrifuged at 20,000×g for 8 min, and the supernatant was discarded. The pellet was washed in 400 μL TBST twice by centrifugation, before the sample was split into two 200 μL-volume samples in TBST. To one sample, 10 μg each of two biotinylated anti-κ mAbs (αLKC8 and 14-6E4) were added; no antibodies were added to the other sample. Both samples were rotated 2 h at RT prior to two washes by centrifugation, as before. The pellets were resuspended in […] TBST with addition of a 1:4 dilution of streptavidin/gold stock solution ([…]; Electron Microscopy Sciences, Hatfield, Pa.). […]
# T1 sequence (P22629 37-163 limits assumed): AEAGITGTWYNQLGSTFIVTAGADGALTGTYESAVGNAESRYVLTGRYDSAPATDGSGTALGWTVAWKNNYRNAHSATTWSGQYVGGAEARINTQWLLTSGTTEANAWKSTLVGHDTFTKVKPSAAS
binder,measurement,value
B1,binding result,no binding

# Reference: patent US20190041390A1 (UNIVERSITY OF TENNESSEE RESEARCH FOUNDATION, published 2019)
